The values below come from article PMC9122904, “Insights into the client protein release mechanism of the ATP-independent chaperone Spy” (Nature Communications, 2022).

Assay in all cases: BLI; Octet RED96; client biotinylated and loaded on streptavidin sensors; Spy or Spy variant in solution at 0.25, 0.5, 1, 1.5 and 2 μM; 40 mM HEPES, 150 mM NaCl, pH 7.5; Kd calculated as koff/kon
Holding throughout (details): both partners purified

One assay addresses T1, Spy_(21-124) (UniProt P77754 44-147).
T1 construct: source: E. coli BL21 (DE3), purified (Ni-NTA, cation exchange, SEC); not shown: His6, N-terminal, cleaved; SUMO, N-terminal, cleaved
T1 sequence (looked up): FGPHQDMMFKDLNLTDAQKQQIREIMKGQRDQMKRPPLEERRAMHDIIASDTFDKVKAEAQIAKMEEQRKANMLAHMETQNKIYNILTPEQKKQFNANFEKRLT
The procedure, abridged: (§1)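 Biolayer interferometry used an Octet RED96: client proteins biotinylated with EZ-link NHS-biotin (1:1 molar ratio) were loaded on streptavidin sensors, dipped into 40 mM HEPES, 150 mM NaCl, pH 7.5 containing Spy protein at 0.25, 0.5, 1, 1.5 and 2 μM, then moved to Spy-free buffer. Wavelength-shift association and dissociation curves were fitted in SigmaPlot 12.0, giving observed association rate and koff. kon came from observed rate versus Spy concentration; Kd was koff/kon.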

Another assay addresses T2, Spy_(29-130) (UniProt P77754 52-153).
T2 construct: Spy chaperone, residues 29-130; source: E. coli BL21 (DE3), purified (Ni-NTA, cation exchange, SEC); not shown: His6, N-terminal, cleaved; SUMO, N-terminal, cleaved
T2 sequence (looked up): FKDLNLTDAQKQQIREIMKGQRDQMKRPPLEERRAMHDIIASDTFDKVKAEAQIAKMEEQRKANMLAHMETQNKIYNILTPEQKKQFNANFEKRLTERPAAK
The gist of the method:
as §1

In the next assay the target is T3, Spy_(24-127) (UniProt P77754 47-150).
T3 construct: Spy chaperone, residues 24-127; source: E. coli BL21 (DE3), purified (Ni-NTA, cation exchange, SEC); not shown: His6, N-terminal, cleaved; SUMO, N-terminal, cleaved
T3 sequence (looked up): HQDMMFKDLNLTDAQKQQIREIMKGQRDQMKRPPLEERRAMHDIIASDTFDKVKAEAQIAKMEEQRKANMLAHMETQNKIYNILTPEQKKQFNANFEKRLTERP
The gist of the method:
as §1

Another assay deals with T4, Spy_(29-124) (UniProt P77754 52-147).
T4 construct: also called termini-free Spy; source: E. coli BL21 (DE3), purified (Ni-NTA, cation exchange, SEC); not shown: His6, N-terminal, cleaved; SUMO, N-terminal, cleaved
T4 sequence (looked up): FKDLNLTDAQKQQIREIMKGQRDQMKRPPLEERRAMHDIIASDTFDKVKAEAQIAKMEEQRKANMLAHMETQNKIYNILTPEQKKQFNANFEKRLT
The procedure, abridged: as §1

A further assay addresses T5, Spy_(1-124) (UniProt P77754 24-147).
T5 construct: source: E. coli BL21 (DE3), purified (Ni-NTA, cation exchange, SEC); not shown: His6, N-terminal, cleaved; SUMO, N-terminal, cleaved
T5 sequence (looked up): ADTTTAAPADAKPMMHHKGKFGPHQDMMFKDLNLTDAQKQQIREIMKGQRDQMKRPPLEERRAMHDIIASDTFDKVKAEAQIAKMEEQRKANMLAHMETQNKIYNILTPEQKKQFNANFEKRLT
The gist of the method: as §1

B1: Im7 H40W L53A I54A (natural protein)
chain: MELKNSISDYTEAEFVQLLKEIEKENVAATDDVLDVLLEWFVKITEHPDGTDAAYYPSDNRDDSPEGIVKEIKEWRAANGKPGFKQG
modifications: biotin (EZ-link NHS-biotin, 1:1 molar ratio of biotin to protein)
notes: Im7 (colicin E7 immunity protein) with H40W L53A I54A; Spy was made with an N-terminal His6-SUMO tag that was cleaved; also called Im7AAW; partially folded client; source: purified by a similar procedure to Spy
As for B1, the Kd is 1820 nM with Spy_(21-124); 333 nM with Spy_(29-130); 1730 nM with Spy_(24-127); 323 nM in the assay with Spy_(29-124); 930 nM in the assay with Spy_(1-124).

Broadly, the Kd is the equilibrium constant for the complex coming apart.
